Data: publication PMC3996851, “Characterization of 3-phosphoglycerate kinase from Corynebacterium glutamicum and its impact on amino acid production” (BMC Microbiology, 2014)

Tests used:
[1] = molecular target: T1, PGK^His (C. glutamicum 3-phosphoglycerate kinase) (Corynebacterium glutamicum, UniProt Q01655); assay: coupled GAPDH/NADH assay, absorbance […] nm; assay type: biochemical
T1 construct: full length, N-terminal tenfold His tag (pET16b); expressed in E. coli BL21(DE3), Ni-NTA purified; 47 kDa monomer, 104 kDa homodimer

purified protein [2] = substrate: O=C(O)[C@H](O)COP(=O)(O)O; assay: purified protein; assay type: biochemical, Corynebacterium glutamicum; conditions: gluconeogenic direction, co-substrate ATP, 2 mM Mg2+, 100 mM TEA-Cl pH 7.4, 30°C
purified protein [3] = substrate: Nc1ncnc2c1ncn2[C@@H]1O[C@H](COP(=O)(O)OP(=O)(O)OP(=O)(O)O)[C@@H](O)[C@H]1O; assay: purified protein; assay type: biochemical, Corynebacterium glutamicum; conditions: gluconeogenic direction, co-substrate 3-PG, 2 mM Mg2+, 100 mM TEA-Cl pH 7.4, 30°C
[4] = molecular target: the molecule itself; assay: SEC; gel filtration on a Bio-Prep SE-1000/17 column calibrated with BioRad standards; 100 mM TEA-Cl pH 7.4 with the optimal conditions for activity; two runs, 2 mg/ml PGK mixed with standards and 4 mg/ml PGK; single peak of about 104 kDa, fractions checked by enzyme activity (data not shown)

Row | Ki [1] [µM] | Molecule | Km (purified protein [2]) [µM] | Vmax (purified protein [2]) [U/mg] | kcat (purified protein [2]) [s⁻¹] | kcat/Km (purified protein [2]) [M⁻¹ s⁻¹] | Km (purified protein [3]) [µM] | Vmax (purified protein [3]) [U/mg] | kcat (purified protein [3]) [s⁻¹] | kcat/Km (purified protein [3]) [M⁻¹ s⁻¹] | stoichiometry N [4]
1 | 100 | Nc1ncnc2c1ncn2[C@@H]1O[C@H](COP(=O)(O)OP(=O)(O)O)[C@@H](O)[C@H]1O [ADP] | – | – | – | – | – | – | – | – | –
2 | – | 3-phosphoglycerate kinase (PGK) from Corynebacterium glutamicum, N-terminally His-tagged (enzyme, Corynebacterium glutamicum ATCC 13032, UniProt Q01655 1-405, looked up, 3-phosphoglycerate kinase (EC 2.7.2.3) of Corynebacterium glutamicum ATCC 13032, encoded by cg1790/pgk; amplified from genomic DNA with primers from start to stop; monomer 47 kDa by SDS-PAGE; The methods say an N-terminal tenfold His tag (pET16b); also called PGK^His; PGKHis; source: E. coli BL21 (DE3) (pET16b-pgk), purified (Ni-NTA, desalted on Sephadex G25); not shown: His10, N-terminal, kept) MAVKTLKDLLDEGVDGRHVIVRSDFNVPLNDDREITDKGRIIASLPTLKALSEGGAKVIVMAHLGRPKGEVNEKYSLAPVAEALSDELGQYVALAADVVGEDAHERANGLTEGDILLLENVRFDPRETSKDEAERTAFAQELAALAADNGAFVSDGFGVVHRAQTSVYDIAKLLPHYAGGLVETEISVLEKIAESPEAPYVVVLGGSKVSDKIGVIEALAAKADKIIVGGGMCYTFLAAQGHNVQQSLLQEEMKATCTDLLARFGDKIVLPVDLVAASEFNKDAEKQIVDLDSIPEGWMSLDIGPESVKNFGEVLSTAKTIFWNGPMGVFEFAAFSEGTRGIAQAIIDATAGNDAFSVVGGGDSAASVRVLGLNEDGFSHISTGGGASLEYLEGKELPGVAILAQ | 260 | 220 | 191 | 733000 | 110 | 150 | 130 | 592000 | 2
